# B1: mAb10913 (antibody, V domains shown)
# VH: EVQLVESGGGLVQPGGSLRLSCAASGFTFRNYEMNWVRQAPGKGLEWVSYITSSGSTMYYADSVKGRFTISRDNAKNSLYLQMNSLRAEDTAVYYCARDGFYYYYAMDVWGQGTTVTVSS
# VL: QSVLTQPPSVSAAPGQKVTISCSGSSSNIGNNYVSWYQQLPGTAPKLLIYDNNKRPSGIPDRFSGSKSGTSATLGITGLQTGDEADYYCGTWDSSLSVGRVFGTGTKVTVLG
# B2: mAb10914 (antibody, V domains shown)
# VH: EVQLVESGGGLVQPGGSLRLSCAASGLIVSRNYMIWVRQAPGKGLEWVSVIYSGGSTFYADSVKGRFTISRHNSKNTLYLQMNSLRAEDTAVYYCARDLGTGGMDVWGQGTTVTVSS
# VL: DIQLTQSPSFLSASVGDRVTITCWASQGISSYLAWYQQKPGKAPKLLIYAASTLQSGVPSRFSGSGSGTEFTLTISSLQPEDFATYYCQQLNSYPLTFGGGTKVEIKR
# B3: mAb10934 (antibody, V domains shown)
# VH: not shown
# VL: DIQMTQSPSSLSASVGDRVTITCQASQDIWNYINWYQQKPGKAPKLLIYDASNLKTGVPSRFSGSGSGTDFTFTISSLQPEDIATYYCQQHDDLPPTFGQGTKVEIKR
# B4: mAb10935 (antibody, V domains shown)
# VH: EVQLVESGGGLVQPGGSLRLSCAASGFTVSSNYMSWVRQAPGKGLEWVSLIYSGGSTYYADSVKGRFTISRHNSKNTLYLQMNSLRSEDTAVYYCARVPLGDYYYGMDVWGQGTTVTVSS
# VL: DIQMTQSPSSLSASVGDRVTITCQASQDINKYLNWYQQKPGKAPKLLIYDASNLETGVPSRFSGSGSGTDFTFTISSLQPEDIATYYCQQSDNLPLTFGGGTKVEIKR
# B5: mAb10936 (antibody, V domains shown)
# VH: QVQLVESGGGVVQPGRSLRLSCAASGFTFRNYGMHWVRQAPGKGLEWVSVIWYDGSNRYYADSVKGRFTISRDTSKNTLYLQMNSLRAEDTAVYYCARDPPITGTTGGDAFDIWGQGTMVTVSS
# VL: not shown
# B6: mAb10937 (antibody, V domains shown)
# VH: QITLKESGPTLVKPTQTLTLTCTFSGFSLSTNVVGVGWIRQPPGKALEWLALIYWNDDKRYSPSLKSRLTITKDTSKNQVVLTMTNMDPVDTATYYCAHGPTGDYFDYWGQGTLVTVSS
# VL: not shown
# B7: mAb10920 (antibody, V domains shown)
# VH: QVQLVESGGGVVQPGRSLRLSCAASGFTFSYYGMHWVRQAPGKGLEWVAVIWYDGSNKFYADSVKGRFTISRDNSKNTLYLQMNSLRAEDTAVYYCAAARPGYYYGMDVWGQGTTVTVSS
# VL: DIQMTQSPSSLSASVGDRVTITCRASQGISNYLAWFQQKPGKAPNSLIYAASSLQRGVPSKFSGSGSGTDFTLTISSLQPEDFATYYCQQYNSYPRTFGQGTKVEIKR
# B8: mAb10921 (antibody, V domains shown)
# VH: EVQLVESGGGLVQPGGSLRLSCAASGITVSSNYMSWVRQAPGKGLEWVSVIYSGGSTFYADSVKGRFTISRHNSKNTLYLQMNSLRAEDTAVYYCARERNFDAFDIWGQGTMVTVSS
# VL: DIQMTQSPSSVSASVGDRVTITCRASQGISSWLAWYQQKPGKAPKLLIYAASSLQSGVPSRFSGSGSGTDFTLTISSLQPEDFATYYCQQANSFPLFTFGPGTKVDIKR
# B9: mAb10923 (antibody, V domains shown)
# VH: QVQLVQSGAEVKKPGASVKVSCKASGYTFINYYIHWVRQAPGQGLEWMGWINPNSGGTNYAQKFQGRVTMTRDTSISTAYMELSRLRSDDTAVYYCAIITIFGVVTWFDPWGQGTLVTVSS
# VL: not shown
# B10: mAb10930 (antibody, V domains shown)
# VH: EVQLVESGGGLVQPGRSLRLSCAASGFTFDDYAMYWVRQAPGKGLEWVSGISWNSGSIGYADSVKGRFTISRDNAKNSLYLQMNSLRAADTALYYCAKDKDWNSRGYYYYGMDVWGQGTTVTVSS
# VL: not shown
# B11: mAb10938 (antibody, V domains shown)
# VH: EVQLVESGGGLVQPGGSLRLSCAVSGFTVSSNYMSWVRQAPGKGLEWVSLIYSGGSTFYADSVKGRFTISRHNSKNTLYLQMNSLRAEDTAVYYCAREGGYSYDYNYWGQGTLVTVSS
# VL: DIQMTQSPSSLSASVGDRVTITCQASQDIRNYLNWYQQKPGKAPKLLIYDASNLETGVPSRFSGIGSGTDFTFTISSLQPEDIATYYCQQYDNLPITFGQGTRLEIKR
# B12: mAb10982 (antibody, V domains shown)
# VH: EVQLVESGGGLVQPGGSLRLSCAASGLTVSSNYMSWVRQAPGKGLEWVSVIYSGGTTYYADSVKGRFTISRHNSKNTLSLQMNSLRAEDTAVYYCARGEGANYYGMDVWGQGTTVTVSS
# VL: QSVLTQPPSVSGAPGQRVTISCTGSSSNIGTGYDVHWYQQLPGTAPKLLIYGNSNRPSGVPDRFSGSKSGTSASLAITGLQAEDEADYYCQSYDSSLSGYVVFGGGTKLTVLG
# B13: mAb10984 (antibody, V domains shown)
# VH: EVQLVESGGGLVQPGGSLRLSCAASGLTVNRNYMSWVRQAPGKGLEWVSLIYSGGSTYYADSVKGRFTISRDNSKNTLYLQMNSLRLEDTAVYYCARGELGIPYGMDVWGQGTTVTVSS
# VL: QSVLTQPPSVSAAPGQKVTISCSGSSSNIGNNYVSWYQQLPGTAPKLLIYDNNKRPSGIPDRFSGSKSGTSATLGITGLQTGDEADYYCGTWDSSLSAGVFGGGTKLTVLG
# B14: mAb10985 (antibody, V domains shown)
# VH: EVQLVESGGGLVQPGRSLRLSCAASGFTFDDYAMHWVRQAPGKGLEWVSGISWNRGSIGYADSVKGRFTISRDNAKNSLYLQMSSLRAEDTALYYCAKDGERWDSVVVPSARNGMDVWGQGTTVTVSS
# VL: QSVLTQPPSVSGAPGQRVTISCTGSSSNIGAGYDVHWYQQLPGTAPKLLIYGNSNRPSGVPDRFSGSKSGTSASLAITGLQAEDEADYYCQSYDSSLSGSYVFGTGTKVTVLG
# B15: mAb10986 (antibody, V domains shown)
# VH: EVQLVESGGGLVQPGGSLRLSCAASEFTVSSNYMSWVRQAPGKGLEWVSVIYSGGSTFYADSVKGRFTISRDNSKNTLYLQMNSLRAEDTAVYYCARALPYGDLHFDYWGQGTLVTVSS
# VL: QSVLTQPPSVSGAPGQRVTISCTGSSSNIGTGYDVHWYQQLPGTAPKLLIYGNTNRPSGVPDRFSGSKSGTSASLAITGLQAEDEADYYCQSYDSSLSDSYVFGTGTKVTVLG
# B16: mAb10969 (antibody, V domains shown)
# VH: QVQLVESGGGVVQPGRSLRLSCAASGFTFSSYAMHWVRQAPGKGLEWVAVISYDGSNKYYADSVKGRFTISRDNSKNTLYLQMNSLRAEDTAVYYCARDGRTITMVRGVIDDAFDIWGQGTMVTVSS
# VL: not shown
# B17: mAb10971 (antibody, V domains shown)
# VH: EVQLVESGGGLIQPGGSLRLSCAASGVTVSSNYMSWVRQAPGKGLEWVSVIYSGGSTFYSDSVKGRFSISRDNSKNTLYLQMNSLRAEDTAVYYCARDLYYYGMDVWGQGTTVTVSS
# VL: DIQLTQSPSFLSASVGDRVTITCRASQGISTYLAWYQQKPGKAPKLLIYAASTLQSGVPSRFSGSGSGTEFTLTISSLQPEDFATYYCQQLDSYPGLTFGGGTKVEIKR
# B18: mAb10964 (antibody, V domains shown)
# VH: QVQLQESGPGLVKPSETLSLTCTVSGGSINNYYWIWIRQPPGKGLEWIGYIYHSGSTNYNPSLKSRVTISVDTSKNQFSLKVSSVTAADTAVYYCANMVRGVYEDDYWGQGTLVTVSS
# VL: DIQMTQSPSSLSASVGDRVTITCRASQSISNYLNWYQQKPGKAPKLLIFAASSLRSGVPSRFSGSGSGTDFTLTISSLHPEDFATYYCQQNYNTPLTFGPGTKVDIKR
# B19: mAb10957 (antibody, V domains shown)
# VH: EVQLVESGGGLVQPGGSLRLSCAASGVTVSSNYMSWVRQAPGKGLEWVSVIYSGGSTFYADSVKGRFTISRDNSKNTLFLQMNSLRIEDTAVYYCARDLGPYGMDVWGQGTTVTVSS
# VL: DIQLTQSPSFLSASVGDRVTITCRASQGISSYLAWYQQKPGKAPKLLIYAASTLQSGVPSRFSGSGSGTQFILTISSLQPEDFATYYCQQLNSYPGFTFGPGTKVDIKR
# What was measured:
# [1] = biological target: T1, MERS-CoV (NCoV/Novel coronavirus) Spike Protein S1 Protein (aa 1-725, His Tag) (Sino 40069-V08B1) (MERS-CoV, UniProt K9N5Q8 18-725); experiment: Luminex bead assay, supernatant
# T1 sequence: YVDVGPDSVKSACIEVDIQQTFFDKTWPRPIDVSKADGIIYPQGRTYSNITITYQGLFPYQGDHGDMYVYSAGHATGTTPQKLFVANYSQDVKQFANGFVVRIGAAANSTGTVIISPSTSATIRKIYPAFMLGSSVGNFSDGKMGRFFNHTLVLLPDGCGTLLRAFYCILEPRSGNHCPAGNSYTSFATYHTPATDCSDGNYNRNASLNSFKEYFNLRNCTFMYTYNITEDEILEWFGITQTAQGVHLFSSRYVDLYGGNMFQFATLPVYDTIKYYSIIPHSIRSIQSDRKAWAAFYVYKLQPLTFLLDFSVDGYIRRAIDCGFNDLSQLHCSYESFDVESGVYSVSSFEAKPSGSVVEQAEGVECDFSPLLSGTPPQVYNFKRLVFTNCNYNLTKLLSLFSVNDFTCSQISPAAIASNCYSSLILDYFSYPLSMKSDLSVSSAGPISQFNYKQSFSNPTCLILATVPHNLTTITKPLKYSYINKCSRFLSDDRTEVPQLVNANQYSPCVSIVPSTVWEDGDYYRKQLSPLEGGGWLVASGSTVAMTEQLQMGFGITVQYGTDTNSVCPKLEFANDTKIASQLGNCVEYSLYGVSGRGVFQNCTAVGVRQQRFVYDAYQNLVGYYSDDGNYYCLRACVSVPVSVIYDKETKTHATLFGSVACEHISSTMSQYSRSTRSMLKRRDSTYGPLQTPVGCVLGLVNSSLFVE
# [2] = biological target: T2, MERS-CoV (NCoV/Novel coronavirus) Spike Protein fragment (RBD, aa 367-606, His Tag) (Sino 40071-V08B1) (MERS-CoV, UniProt K9N5Q8 367-606); experiment: Luminex bead assay, supernatant
# T2 sequence: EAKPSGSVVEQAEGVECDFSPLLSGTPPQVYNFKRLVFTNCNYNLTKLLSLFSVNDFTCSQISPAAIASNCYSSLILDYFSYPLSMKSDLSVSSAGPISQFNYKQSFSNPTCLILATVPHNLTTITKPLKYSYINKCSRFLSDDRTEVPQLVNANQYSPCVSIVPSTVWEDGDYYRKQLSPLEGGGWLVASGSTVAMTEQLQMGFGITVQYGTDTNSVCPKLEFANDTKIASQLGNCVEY
Binder,Binding signal (MFI) [1] [MFI],Binding signal (MFI) [2] [MFI]
B1,26,34
B2,23,31
B3,20,24
B4,,25
B5,20,29
B6,22,27
B7,27,39
B8,,23
B9,25,37
B10,22,27
B11,20,25
B12,,29
B13,20,29
B14,22,31
B15,20,27
B16,19,
B17,19,
B18,19,
B19,19,

# Source: patent publication US20220356230A1 (published 2022)
